Experimental data reported in publication PMC2900306, “Integration Preferences of Wildtype AAV-2 for Consensus Rep-Binding Sites at Numerous Loci in the Human Genome”.

How the values were obtained:
[1] = target: T1, MBP-Rep78 (Adeno-associated virus type 2 (AAV-2)?, UniProt Q89268 1-621); test: EMSA; 10 mM Mg2+; 25 mM HEPES-KOH pH 7.8, 10 mM MgCl2, 40 mM NaCl, 1 mM DTT, 2% glycerol, 12.5 ug/ml BSA, 0.01% Nonidet P40, 5 ug/ml salmon sperm DNA; 0.015 pmol probe; 20 min at 20 C; conditions: protein: recombinant; MBP fusion; label: 32P 5' end label; blunt
T1 sequence: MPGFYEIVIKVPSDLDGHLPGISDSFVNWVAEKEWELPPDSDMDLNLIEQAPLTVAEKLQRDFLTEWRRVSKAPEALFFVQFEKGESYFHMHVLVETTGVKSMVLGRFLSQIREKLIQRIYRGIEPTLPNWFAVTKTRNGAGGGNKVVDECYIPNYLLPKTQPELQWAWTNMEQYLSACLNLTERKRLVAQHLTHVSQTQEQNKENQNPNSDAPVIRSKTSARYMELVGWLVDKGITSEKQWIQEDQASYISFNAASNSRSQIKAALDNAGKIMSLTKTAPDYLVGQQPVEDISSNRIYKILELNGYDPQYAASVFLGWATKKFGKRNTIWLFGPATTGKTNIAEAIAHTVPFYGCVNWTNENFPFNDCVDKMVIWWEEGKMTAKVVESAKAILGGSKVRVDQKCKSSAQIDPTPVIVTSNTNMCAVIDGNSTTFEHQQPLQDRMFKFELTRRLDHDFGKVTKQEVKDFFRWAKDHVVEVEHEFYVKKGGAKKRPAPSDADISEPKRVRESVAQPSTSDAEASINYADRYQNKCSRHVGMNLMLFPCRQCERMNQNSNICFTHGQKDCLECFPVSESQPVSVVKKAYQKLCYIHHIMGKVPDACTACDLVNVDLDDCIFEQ

[2] = target: T1, MBP-Rep78; test: EMSA; among the highest affinities; 10 mM Mg2+; 25 mM HEPES-KOH pH 7.8, 10 mM MgCl2, 40 mM NaCl, 1 mM DTT, 2% glycerol, 12.5 ug/ml BSA, 0.01% Nonidet P40, 5 ug/ml salmon sperm DNA; 0.015 pmol probe; 20 min at 20 C; conditions: protein: recombinant; MBP fusion; label: 32P 5' end label; blunt

B1: Chr. 3p24.3 (AAVS3) (dsDNA)
DNA 1: GTGAGGAGTGAGTGAGTGAGCGAGCGCACATTCATTCCCCTTGGGAAGC
DNA 2: GCTTCCCAAGGGGAATGAATGTGCGCTCGCTCACTCACTCACTCCTCAC
- binding signal [1]: 2 fold of AAVS1 affinity

B2: AAV-ITR (A-stem, nt 85-133) (dsDNA)
DNA 1: GCCTCAGTGAGCGAGCGAGCGCGCAGAGAGGGAGTGGCCAACTCCATCA
DNA 2: TGATGGAGTTGGCCACTCCCTCTCTGCGCGCTCGCTCGCTCACTGAGGC
- binding result [2]: binds

B3: AAV p5 (nt 245-292) (dsDNA)
DNA 1: TCACGCTGGGTATTTAAGCCCGAGTGAGCACGCAGGGTCTCCATTTTG
DNA 2: CAAAATGGAGACCCTGCGTGCTCACTCGGGCTTAAATACCCAGCGTGA
- binding result [2]: binds
